Test results as given in CN114920842A (HUALAN GENE ENG CO LTD, dated 2022).

B1: HLPV-P01 (antibody, IgG1, V domains shown)
VH: QVQLVQSGAEVKKPGASVKVSCKASGYTFTDYYMYWVRQAPGQGLEWIGEINPTQGDVNFNEMFKSRVTMTVDTSTSTAYMELSSLRSEDTAVYYCTSIFYWGQGTLVTVSS
VL: DIVMTQSPSSLSASVGDRVTITCKASQDIKYQLSWYQQKPGKAPKTLIYYATDLADGVPSRFSGSGSGQEFTLTISSLQPEDFATYYCVQHDDRPFTFGQGTKLEIK
notes: Full IgG1/kappa antibody; also called 中间抗体; not shown: human IgG1 heavy chain constant region, UniProtKB P01857.1; human Kappa light chain constant region, UniProtKB P01834.2
B2: HLPV-P14 (antibody, IgG1, V domains shown)
VH: QVQLVQSGAEVKKPGASVKVSCKASGYTFTNYYMYWVRQAPGQGLEWIGEINPTSGDVNFNEMFKSRVTMTVDTSTSTAYMELSSLRSEDTAVYYCTSIFYWGQGTLVTVSS
VL: DIVMTQSPSSLSASVGDRVTITCKASQDIKYQLSWYQQKPGKAPKTLIYYAGDLADGVPSRFSGSGSGQEFTLTISSLQPEDFATYYCVQHDDRPFTFGQGTKLEIK
notes: Full IgG1/kappa antibody; not shown: human IgG1 heavy chain constant region, UniProtKB P01857.1; human Kappa light chain constant region, UniProtKB P01834.2
B3: HLPV-P11 (antibody, IgG1, V domains shown)
VH: QVQLVQSGAEVKKPGASVKVSCKASGYTFTDYYMYWVRQAPGQGLEWIGEINPTQGDVNFNEMFKSRVTMTVDTSTSTAYMELSSLRSEDTAVYYCTTIFYWGQGTLVTVSS
VL: DIVMTQSPSSLSASVGDRVTITCKASQDIKYQLSWYQQKPGKAPKTLIYYATDLADGVPSRFSGSGSGQEFTLTISSLQPEDFATYYCVQHDDRPFSFGQGTKLEIK
notes: as for B2
B4: HLPV-P12 (antibody, IgG1, V domains shown)
VH: QVQLVQSGAEVKKPGASVKVSCKASGYTFTDYYMYWVRQAPGQGLEWIGEINPSQGDVNFNEMFKSRVTMTVDTSTSTAYMELSSLRSEDTAVYYCTSIFYWGQGTLVTVSS
VL: DIVMTQSPSSLSASVGDRVTITCKASQDIKYQLSWYQQKPGKAPKTLIYYATDRADGVPSRFSGSGSGQEFTLTISSLQPEDFATYYCVQHDDRPFTFGQGTKLEIK
notes: as for B2
B5: HLPV-P08 (antibody, IgG1, V domains shown)
VH: QVQLVQSGAEVKKPGASVKVSCKASGYTFTDYYMYWVRQAPGQGLEWIGEINPTQGDVNFNEMFKSRVTMTVDTSTSTAYMELSSLRSEDTAVYYCTTIFYWGQGTLVTVSS
VL: DIVMTQSPSSLSASVGDRVTITCKASQDIKYQLTWYQQKPGKAPKTLIYYATDLADGVPSRFSGSGSGQEFTLTISSLQPEDFATYYCVSHDDRPFTFGQGTKLEIK
notes: as for B2
B6: HLPV-P02 (antibody, IgG1, V domains shown)
VH: QVQLVQSGAEVKKPGASVKVSCKASGYVFTDYYMYWVRQAPGQGLEWIGEINPTTGDVNFNEMFKSRVTMTVDTSTSTAYMELSSLRSEDTAVYYCTSIFYWGQGTLVTVSS
VL: DIVMTQSPSSLSASVGDRVTITCKASQDIKYQLSWYQQKPGKAPKTLIYYSTDLADGVPSRFSGSGSGQEFTLTISSLQPEDFATYYCVQHDDRPFTFGQGTKLEIK
notes: as for B2
B7: HLPV-P07 (antibody, IgG1, V domains shown)
VH: QVQLVQSGAEVKKPGASVKVSCKASGYTFEDYYMYWVRQAPGQGLEWIGEINPTQGDVRFNEMFKSRVTMTVDTSTSTAYMELSSLRSEDTAVYYCTSIFYWGQGTLVTVSS
VL: DIVMTQSPSSLSASVGDRVTITCKASQDIKYQLSWYQQKPGKAPKTLIYYATYLADGVPSRFSGSGSGQEFTLTISSLQPEDFATYYCVQHDDRPFTFGQGTKLEIK
notes: as for B2
B8: HLPV-P06 (antibody, IgG1, V domains shown)
VH: QVQLVQSGAEVKKPGASVKVSCKASGYTFTAYYMYWVRQAPGQGLEWIGEINPTSGDVNFNEMFKSRVTMTVDTSTSTAYMELSSLRSEDTAVYYCTSIFYWGQGTLVTVSS
VL: DIVMTQSPSSLSASVGDRVTITCKASQDIKYQLSWYQQKPGKAPKTLIYYATFLADGVPSRFSGSGSGQEFTLTISSLQPEDFATYYCVQHDDRPFTFGQGTKLEIK
notes: as for B2
B9: HLPV-P05 (antibody, IgG1, V domains shown)
VH: QVQLVQSGAEVKKPGASVKVSCKASGYTFTDYYMYWVRQAPGQGLEWIGEINPTQGDVNFNEMFKSRVTMTVDTSTSTAYMELSSLRSEDTAVYYCTSIFYWGQGTLVTVSS
VL: DIVMTQSPSSLSASVGDRVTITCKASQDIKYQLTWYQQKPGKAPKTLIYYATDLADGVPSRFSGSGSGQEFTLTISSLQPEDFATYYCVQHDNRPFTFGQGTKLEIK
notes: as for B2
B10: HLPV-P03 (antibody, IgG1, V domains shown)
VH: QVQLVQSGAEVKKPGASVKVSCKASGYTFEDYYMYWVRQAPGQGLEWIGEVNPTQGDVNFNEMFKSRVTMTVDTSTSTAYMELSSLRSEDTAVYYCTSIFYWGQGTLVTVSS
VL: DIVMTQSPSSLSASVGDRVTITCKASQDIKYQLSWYQQKPGKAPKTLIYYATFLADGVPSRFSGSGSGQEFTLTISSLQPEDFATYYCVQHDDRPFTFGQGTKLEIK
notes: as for B2
B11: HLPV-P13 (antibody, IgG1, V domains shown)
VH: QVQLVQSGAEVKKPGASVKVSCKASGYVFTDYYMYWVRQAPGQGLEWIGEINPTSGDVNFNEMFKSRVTMTVDTSTSTAYMELSSLRSEDTAVYYCTSIFYWGQGTLVTVSS
VL: DIVMTQSPSSLSASVGDRVTITCKASQDIKYQLSWYQQKPGKAPKTLIYYAGDLADGVPSRFSGSGSGQEFTLTISSLQPEDFATYYCVQHDDRPFTFGQGTKLEIK
notes: as for B2
B12: HLPV-P00 (antibody, IgG1, V domains shown)
VH: QVQLVQSGAEVKKPGASVKVSCKASGYTFTDYYMYWVRQAPGQGLEWIGEINPTQGDVNFNEMFKSRVTMTVDTSTSTAYMELSSLRSEDTAVYYCTSIHYWGQGTLVTVSS
VL: DIVMTQSPSSLSASVGDRVTITCKASQDIKTQLSWYQQKPGKAPKTLIYYATDLADGVPSRFSGSGSGQEFTLTISSLQPEDFATYYCLQHDDRPFTFGQGTKLEIK
notes: Full IgG1/kappa antibody, VH fused at its C-terminus to the IgG1 constant region, VL to the kappa constant region; expressed in ExpiCHO-S; also called 原始抗体; not shown: human IgG1 heavy chain constant region, UniProtKB P01857.1; human Kappa light chain constant region, UniProtKB P01834.2
B13: HLPV-P09 (antibody, IgG1, V domains shown)
VH: QVQLVQSGAEVKKPGASVKVSCKASGYTFTDYYMYWVRQAPGQGLEWIGEINPTQGDVNFNEMFKSRVTMTVDTSTSTAYMELSSLRSEDTAVYYCTTIFYWGQGTLVTVSS
VL: DIVMTQSPSSLSASVGDRVTITCKASQDIGYQLSWYQQKPGKAPKTLIYYATDLADGVPSRFSGSGSGQEFTLTISSLQPEDFATYYCVQHYDRPFTFGQGTKLEIK
notes: as for B2
B14: HLPV-P10 (antibody, IgG1, V domains shown)
VH: QVQLVQSGAEVKKPGASVKVSCKASGYTFTDYYMYWVRQAPGQGLEWIGEINPTQGDVNFNEMFKSRVTMTVDTSTSTAYMELSSLRSEDTAVYYCTSIFYWGQGTLVTVSS
VL: DIVMTQSPSSLSASVGDRVTITCKASQDIKYQLTWYQQKPGKAPKTLIYYATDLADGVPSRFSGSGSGQEFTLTISSLQPEDFATYYCVQHSDRPFTFGQGTKLEIK
notes: as for B2
B15: HLPV-P04 (antibody, IgG1, V domains shown)
VH: QVQLVQSGAEVKKPGASVKVSCKASGYTFRDYYMYWVRQAPGQGLEWIGEINPTTGDVNFNEMFKSRVTMTVDTSTSTAYMELSSLRSEDTAVYYCTSIFYWGQGTLVTVSS
VL: DIVMTQSPSSLSASVGDRVTITCKASQDIKYQLSWYQQKPGKAPKTLIYYATSLADGVPSRFSGSGSGQEFTLTISSLQPEDFATYYCVQHDDRPFTFGQGTKLEIK
notes: as for B2

biological target: T1, 重组人PLVAP/PV-1蛋白 (human, UniProt Q9BX97 49-442, limits assumed); assay: SPR, Biacore T200, PV-1 coupled to CM5 chip, antibody as analyte, 25℃, 1:1 fit
T1 construct: Bought reagent (Abcam); Coupled to a CM5 chip in the SPR assay; also called 质膜膜泡关联蛋白
T1 sequence (looked up): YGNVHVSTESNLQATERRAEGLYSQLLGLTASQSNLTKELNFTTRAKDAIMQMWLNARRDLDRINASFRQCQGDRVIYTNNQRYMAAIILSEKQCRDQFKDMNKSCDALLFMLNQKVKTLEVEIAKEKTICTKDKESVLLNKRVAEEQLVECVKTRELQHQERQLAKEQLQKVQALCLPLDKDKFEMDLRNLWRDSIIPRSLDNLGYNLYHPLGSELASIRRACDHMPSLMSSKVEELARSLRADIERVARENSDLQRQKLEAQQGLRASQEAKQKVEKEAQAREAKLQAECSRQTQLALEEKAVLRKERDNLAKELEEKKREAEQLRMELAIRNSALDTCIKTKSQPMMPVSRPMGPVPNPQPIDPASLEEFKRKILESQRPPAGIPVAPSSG

**Q.** For B1, which “倍数 (fold against HLPV-P00)” value is on record?
**A.** The value was 7.31 fold.

**Q.** B2 was tested. Which “倍数 (fold against HLPV-P00)” value did it give?
**A.** The value was 8.58 fold.

**Q.** With B3 as the binder, how does the “倍数 (fold against HLPV-P00)” value read?
**A.** Its value is 40.5 fold.

**Q.** With B4 as the binder, how does the “倍数 (fold against HLPV-P00)” value read?
**A.** Its value is 4.1 fold.

**Q.** For B5, which “倍数 (fold against HLPV-P00)” value is on record?
**A.** Its value is 38.4 fold.

**Q.** B6 was tested. Which “倍数 (fold against HLPV-P00)” value did it give?
**A.** The value was 6.29 fold.

**Q.** How did the “倍数 (fold against HLPV-P00)” value turn out when B7 was run?
**A.** Its value is 11.4 fold.

**Q.** For B8, which “倍数 (fold against HLPV-P00)” value is on record?
**A.** The value was 8.95 fold.

**Q.** With B9 as the binder, how does the “倍数 (fold against HLPV-P00)” value read?
**A.** The value was 25.8 fold.

**Q.** How did the “倍数 (fold against HLPV-P00)” value turn out when B10 was run?
**A.** Its value is 13.4 fold.

**Q.** Which “倍数 (fold against HLPV-P00)” value does the source give for B11 here?
**A.** The value was 9.29 fold.

**Q.** B12 was tested. Which “倍数 (fold against HLPV-P00)” value did it give?
**A.** Its value is 1 fold.

**Q.** With B13 as the binder, how does the “倍数 (fold against HLPV-P00)” value read?
**A.** Its value is 36.8 fold.

**Q.** B14 was tested. Which “倍数 (fold against HLPV-P00)” value did it give?
**A.** The value was 23.4 fold.

**Q.** How did the “倍数 (fold against HLPV-P00)” value turn out when B15 was run?
**A.** The value was 14 fold.
